Source: patent publication US20260347439 (published 2026)
Like-named read-outs stand apart in the source and are kept apart here.

How the values were obtained:
[1] = molecular target: T1, RSV A2 pre-F (Respiratory syncytial virus A2); assay: ELISA
[2] = molecular target: T1, RSV A2 pre-F; assay: BLI
[3] = molecular target: T1, RSV A2 pre-F; assay: BLI; remark: listed apart in the source
[4] = molecular target: T1, RSV A2 pre-F; assay: ELISA; remark: listed apart in the source

Row | Binder | EC50 [1] [mg/L] | Kd [2] [nM] | Kd [3] [nM] | EC50 [4] [mg/L]
1 | MEDI8897 (antibody, V domains shown) VH: QVQLVQSGAEVKKPGSSVMVSCQASGGLLEDYIINWVRQAPGQGPEWMGGIIPVLGTVHYGPKFQGRVTITADESTDTAYMELSSLRSEDTAMYYCATETALVVSETYLPHYFDNWGQGTLVTVSS VL: DIQMTQSPSSLSAAVGDRVTITCQASQDIVNYLNWYQQKPGKAPKLLIYVASNLETGVPSRFSGSGSGTDFSLTISSLQPEDVATYYCQQYDNLPLTFGGGTKVEIKR | 0.0146 | 0.122 | 0.379 | 0.0313
2 | F6-125 (antibody, V domains shown) VH: QLQLVQSGTEVKKPGASVKVSCKASGYTFSDNAINWVRQAPGQGLEWLGWITANNGNTNYAQKIQGRVTMTTDTSTSTVYMELRSLGSDDTAVYYCAREVVNYGLGSLHFDYWGQGTLVTVSS VL: SYELTQPPSVSVSPGQTVSISCSGDKLGNDYASWYQQKPGQSPLLVIYEDAKRPSGIPERFSGSNSGNTATLTISGTQAMDDADYYCQAWDGTTVIFGGGTKLTVL |  |  | < 0.001 | 0.0144
3 | F6-18 (antibody, V domains shown) VH: EEQLVESGGGLVRPGGSLRLSCVASGFSVSDYGMHWVRQAPGRGLEYVSAIRSHGDGTYYVNSVKGRFIISRDNSKNTLYLQMGSLSAEDMAVYYCARDRVWAHDYDDTAWLDAFDLWGQGTTVIVSS VL: DIQMTQSPSTLSASVGDKVTITCRASQSVGSLLAWYQQKPGKAPKLLIYDASNLQRGVPSRFSGSGSGTEFTLTISSLQPDDFATYYCQQYKSHSPPFGQGTKLEIK | 0.016 | 0.0805 |  | 
4 | F6-10 (antibody, V domains shown) VH: DALLLQSGGGLMQPGGSLRLSCAASEFTFNIHAMTWVRQSPGKGLEWVSGISSTGEGTYYTDSVKGRFTISRDNSKSTLYLQMNSLRAEDTATYFCARYSFRYGELRGTFDIWGQGVLVSVSS VL: DIQMTQTPSTLSASVGDRVIITCRASQSVGDSVAWFQQKPGRAPKLLIYDTTNLERGVPSRFSGSFSGTAFTLTITRLQPDDFATYYCQQYDESWTFGQGTKVEVK |  |  | 0.994 | 0.0307
5 | F6-113 (antibody, V domains shown) VH: QVQLQQWGAGLLKPSETLSLTCAVDGASVSDDDWTWIRQSPGKGLEWIGQIDQTGSFNYNPSLRSRVTISPDTSKNHFSLSLTSVTAADTALYYCARGGLVVTDVGQGWDAFDVWGQGTMVTVSS VL: DIQLTQSPSSVSASVGDRITITCRASQDIDNWLAWYQQKPGEAPKLLIYAASTLQSGVPSRFSGSGAGTEFTLTITSLQPEDFAGYFCQQGDSFPLTFGGGTKVDIK |  |  | < 0.001 | 0.0133
